# Measurements from IntAct's records for PubMed 23395371.
# B1: Ras-related protein Rab-7L1 (Rattus norvegicus (Rat)), Q63481 (parent)
# chain: MGSRDHLFKVLVVGDAAVGKTSLVQRYSQDSFSKHYKSTVGVDFALKVLQWSDSEMVRLQLWDIAGQERFTSMTRLYYRDASACVIMFDVTNATTFSNSQRWKQDLDSKLTLPSGEPVPCLLLANKSDLSPWAVSRDQIDRFSKENGFTGWTETSVKENKNINEAMRVLVEKMMNNSREDIMSSSTQGNYINLQTKPSPGWTCC
# Variants of: B1
# Conditions: with lrrk2_human LRRK2, Q5S007
# lrrk2_human LRRK2, Q5S007, sequence (Q5S007 whole entry): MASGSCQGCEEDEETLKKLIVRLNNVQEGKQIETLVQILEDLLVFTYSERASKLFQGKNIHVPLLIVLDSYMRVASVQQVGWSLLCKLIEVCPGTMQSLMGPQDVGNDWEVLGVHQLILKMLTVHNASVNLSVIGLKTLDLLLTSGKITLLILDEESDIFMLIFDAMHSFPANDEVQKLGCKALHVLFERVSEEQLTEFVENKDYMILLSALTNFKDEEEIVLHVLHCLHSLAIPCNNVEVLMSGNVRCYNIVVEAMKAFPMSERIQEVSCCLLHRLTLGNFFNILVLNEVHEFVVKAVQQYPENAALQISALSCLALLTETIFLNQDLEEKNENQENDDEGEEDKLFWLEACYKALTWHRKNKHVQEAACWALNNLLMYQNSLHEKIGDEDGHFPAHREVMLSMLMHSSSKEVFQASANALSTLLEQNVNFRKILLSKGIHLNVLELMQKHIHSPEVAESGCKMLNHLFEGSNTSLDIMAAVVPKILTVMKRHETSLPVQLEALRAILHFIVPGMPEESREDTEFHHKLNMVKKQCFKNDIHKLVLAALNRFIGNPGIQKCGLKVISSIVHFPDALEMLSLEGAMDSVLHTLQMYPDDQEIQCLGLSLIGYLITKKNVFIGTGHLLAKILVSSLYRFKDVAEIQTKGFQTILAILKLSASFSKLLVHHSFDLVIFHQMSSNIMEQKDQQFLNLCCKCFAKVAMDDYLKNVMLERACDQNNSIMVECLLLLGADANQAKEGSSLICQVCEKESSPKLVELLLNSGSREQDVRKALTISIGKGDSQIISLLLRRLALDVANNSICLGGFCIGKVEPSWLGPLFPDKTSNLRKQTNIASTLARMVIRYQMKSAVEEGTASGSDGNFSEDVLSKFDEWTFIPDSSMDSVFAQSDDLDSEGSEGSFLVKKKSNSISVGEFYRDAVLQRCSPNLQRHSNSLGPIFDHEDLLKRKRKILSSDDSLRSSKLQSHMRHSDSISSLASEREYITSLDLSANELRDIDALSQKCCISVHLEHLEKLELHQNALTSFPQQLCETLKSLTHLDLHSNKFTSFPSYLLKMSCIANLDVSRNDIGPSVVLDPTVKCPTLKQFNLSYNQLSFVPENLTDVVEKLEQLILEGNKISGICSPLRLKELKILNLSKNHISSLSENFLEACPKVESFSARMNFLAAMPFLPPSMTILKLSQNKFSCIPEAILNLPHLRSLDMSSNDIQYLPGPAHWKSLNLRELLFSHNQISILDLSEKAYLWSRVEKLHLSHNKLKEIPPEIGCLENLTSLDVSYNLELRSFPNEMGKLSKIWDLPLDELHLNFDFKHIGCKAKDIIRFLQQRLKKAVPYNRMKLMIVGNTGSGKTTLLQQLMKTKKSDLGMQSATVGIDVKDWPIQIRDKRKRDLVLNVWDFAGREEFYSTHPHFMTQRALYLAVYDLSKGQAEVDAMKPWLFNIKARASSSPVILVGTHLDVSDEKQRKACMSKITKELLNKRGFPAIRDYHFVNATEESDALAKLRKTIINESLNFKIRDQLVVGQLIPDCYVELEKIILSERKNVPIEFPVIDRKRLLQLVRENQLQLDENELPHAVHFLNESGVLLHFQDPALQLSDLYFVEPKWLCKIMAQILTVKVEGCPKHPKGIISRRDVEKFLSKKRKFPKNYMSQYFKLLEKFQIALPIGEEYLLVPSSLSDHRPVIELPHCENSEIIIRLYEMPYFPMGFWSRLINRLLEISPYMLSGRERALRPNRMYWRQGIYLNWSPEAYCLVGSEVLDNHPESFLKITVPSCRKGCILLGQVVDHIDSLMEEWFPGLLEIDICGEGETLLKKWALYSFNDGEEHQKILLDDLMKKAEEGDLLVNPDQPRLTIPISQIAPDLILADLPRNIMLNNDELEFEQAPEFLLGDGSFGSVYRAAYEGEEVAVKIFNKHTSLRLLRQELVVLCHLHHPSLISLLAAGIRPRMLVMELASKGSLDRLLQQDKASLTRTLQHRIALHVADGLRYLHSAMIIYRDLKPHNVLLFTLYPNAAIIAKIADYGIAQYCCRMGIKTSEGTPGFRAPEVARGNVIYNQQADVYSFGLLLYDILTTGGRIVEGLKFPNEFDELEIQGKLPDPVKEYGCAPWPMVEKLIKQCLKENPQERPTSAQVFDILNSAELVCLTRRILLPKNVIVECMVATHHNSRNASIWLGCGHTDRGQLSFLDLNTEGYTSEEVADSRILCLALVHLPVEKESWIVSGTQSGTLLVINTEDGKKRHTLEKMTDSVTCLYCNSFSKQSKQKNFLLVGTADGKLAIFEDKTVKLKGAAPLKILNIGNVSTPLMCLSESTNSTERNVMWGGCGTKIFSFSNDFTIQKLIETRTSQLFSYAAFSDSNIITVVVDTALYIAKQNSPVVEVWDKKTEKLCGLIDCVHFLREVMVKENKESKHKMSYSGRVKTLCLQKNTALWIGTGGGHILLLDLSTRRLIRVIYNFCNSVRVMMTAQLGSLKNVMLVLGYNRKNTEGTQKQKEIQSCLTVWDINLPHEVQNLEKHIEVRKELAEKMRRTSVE
row,effect of a mutation on the interaction,Variant
1,decreasing interaction,T21N
2,decreasing interaction,Q67L
